Experimental data from PMC2120623.

What was measured:
Assay in all cases: two-hybrid
[1] = biological target: AP47 in pGBT9 (two-hybrid GAL4 DNA binding domain fusion) (UniProt P35585)
[2] = biological target: αγα chimera in pGBT9 (two-hybrid GAL4 DNA binding domain fusion) (not stated | bovine) (UniProt P17427)
[3] = biological target: AP50 in pGBT9 (two-hybrid GAL4 DNA binding domain fusion) (UniProt P84092)
UniProt P84092, sequence (P84092 whole entry, the tested form may be a part): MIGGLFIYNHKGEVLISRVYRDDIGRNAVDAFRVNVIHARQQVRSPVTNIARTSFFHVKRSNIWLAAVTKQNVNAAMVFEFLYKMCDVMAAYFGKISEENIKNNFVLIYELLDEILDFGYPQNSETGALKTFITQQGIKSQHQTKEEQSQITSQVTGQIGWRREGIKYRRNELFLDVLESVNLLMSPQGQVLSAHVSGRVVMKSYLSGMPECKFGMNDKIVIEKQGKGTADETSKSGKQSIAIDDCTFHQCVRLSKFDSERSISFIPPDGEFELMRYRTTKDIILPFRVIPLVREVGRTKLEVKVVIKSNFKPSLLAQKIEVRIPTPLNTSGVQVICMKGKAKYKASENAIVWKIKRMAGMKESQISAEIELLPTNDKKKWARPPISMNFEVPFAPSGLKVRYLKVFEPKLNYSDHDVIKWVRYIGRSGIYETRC

UniProt P17427, sequence (P17427 whole entry, change not shown, the tested form may be a part): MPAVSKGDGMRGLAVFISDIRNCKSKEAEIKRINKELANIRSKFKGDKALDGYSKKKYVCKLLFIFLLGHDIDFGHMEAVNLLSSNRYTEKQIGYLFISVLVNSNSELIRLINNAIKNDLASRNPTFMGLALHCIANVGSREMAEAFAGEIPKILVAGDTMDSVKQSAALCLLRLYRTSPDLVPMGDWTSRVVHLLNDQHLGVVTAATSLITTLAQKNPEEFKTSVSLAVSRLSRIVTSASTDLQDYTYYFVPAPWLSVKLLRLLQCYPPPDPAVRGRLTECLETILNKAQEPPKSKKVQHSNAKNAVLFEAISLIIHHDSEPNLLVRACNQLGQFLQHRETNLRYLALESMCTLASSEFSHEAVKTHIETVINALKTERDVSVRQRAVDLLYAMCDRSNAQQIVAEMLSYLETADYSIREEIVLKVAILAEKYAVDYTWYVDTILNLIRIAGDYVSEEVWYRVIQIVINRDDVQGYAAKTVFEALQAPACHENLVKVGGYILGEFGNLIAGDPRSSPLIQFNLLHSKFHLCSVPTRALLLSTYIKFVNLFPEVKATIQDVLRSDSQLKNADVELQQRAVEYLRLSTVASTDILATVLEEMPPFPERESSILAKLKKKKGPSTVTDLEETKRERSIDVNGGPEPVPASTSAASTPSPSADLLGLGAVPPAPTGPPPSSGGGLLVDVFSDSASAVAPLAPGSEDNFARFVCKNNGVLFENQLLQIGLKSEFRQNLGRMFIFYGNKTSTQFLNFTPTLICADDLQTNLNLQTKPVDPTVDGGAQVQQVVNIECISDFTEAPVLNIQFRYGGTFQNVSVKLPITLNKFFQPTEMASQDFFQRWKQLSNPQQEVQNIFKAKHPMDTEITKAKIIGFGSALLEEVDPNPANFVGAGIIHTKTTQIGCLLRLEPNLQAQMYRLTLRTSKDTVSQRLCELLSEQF
UniProt P35585, sequence (P35585 whole entry, the tested form may be a part): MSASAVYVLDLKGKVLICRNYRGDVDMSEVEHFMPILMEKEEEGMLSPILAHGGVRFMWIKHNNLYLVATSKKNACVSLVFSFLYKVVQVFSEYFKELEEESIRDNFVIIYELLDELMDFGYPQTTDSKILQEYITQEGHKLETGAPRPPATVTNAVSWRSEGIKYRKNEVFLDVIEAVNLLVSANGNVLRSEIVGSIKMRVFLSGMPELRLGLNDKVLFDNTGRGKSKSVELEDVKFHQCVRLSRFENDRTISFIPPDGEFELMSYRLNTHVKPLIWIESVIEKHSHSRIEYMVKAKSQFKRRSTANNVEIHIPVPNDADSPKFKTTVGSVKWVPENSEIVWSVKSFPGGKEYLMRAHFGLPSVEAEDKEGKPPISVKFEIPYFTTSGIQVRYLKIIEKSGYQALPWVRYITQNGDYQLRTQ

| beta-galactosidase units [1] | beta-galactosidase units [2] | beta-galactosidase units [3] | Molecule |
| --- | --- | --- | --- |
| 25.4 units | 38.6 units | 102 units | beta-adaptin in pGAD424 (two-hybrid activator fusion) (from UniProt P62944 1-937) (natural protein) |
|  | 22.3 units |  | beta'-adaptin in pGAD424 (two-hybrid activator fusion) (natural protein) MTDSKYFTTTKKGEIFELKAELNSDKKEKKKEAVKKVIASMTVGKDVSALFPDVVNCMQTDNLELKKLVYLYLMNYAKSQPDMAIMAVNTFVKDCEDPNPLIRALAVRTMGCIRVDKITEYLCEPLRKCLKDEDPYVRKTAAVCVAKLHDINAQLVEDQGFLDTLKDLISDSNPMVVANRVAALSEIAESHPSSNLLDLKAQSINKLLTALNECTEWAQIFILDCLGNYMPKDDREAQSICERVTPRLSHANSAVVLSAVKVLMKFMEMLSKDLDYYATLLKKLAPPLVTLLSAEPEPQYVPLRNINLIVQKRPEILKHEMKVFFVKYNDPIYVKLEKLDIMIRLASQANIAQVLAELKEYATEVDVDFVRKAVRAIGRCAIKVEQSAERCVSTLLDLIQTKVNYVVQEAIVVIKDIFRKYPNKYESVIATLCENLDSLDEPEARAAMIWIVGEYAERIDNADELLESFLDGFHDESTQVQLQLLTAIVKLFLKKPTETQELVQQVLSLATQDSDNPDLRDRGYIYWRLLSTDPVAAKEVVLAEKPLISEETDLIEPTLLDELICYIGTLASVYHKPPNAFVEGGRGVVHKSLPPRTASSESTESPEAAPAGAPASDQPDVIPAQGDLLGDLLNLDLGPPVSGPPLAASSVQMGAVDLLGGGLDSLMGDEPEGIGDSNFGAPPASVAAAAPARLGAPVSSGLSDLFDLTSGVGTLSGSYVAPKAVWLPAMKAKGLEISGTFTRQVGSISMDLQLTNKALQVMTDFAIQFNRNSFGLAPAAPLQVHAPLSPNQTVEISLPLNTVGSVMKMEPLNNLQVAVKNNIDVFYFSTLYPLHVLFVEDGKMDRQMFLATWKDIPNENEAQFQIRDCPLNTEAASSKLQSSNIFTVAKRTVEGQDMLYQSLKLTNGIWVLAELRIQPGNPSFTLSLKCRAPEVSQHDIQAYETILKN |
